Laboratory results taken from publication PMC4909301, “Fibulin-5 Regulates Angiopoietin-1/Tie-2 Receptor Signaling in Endothelial Cells” (PLoS ONE, 2016).

Molecular target: T1, recombinant human Tie-2/Fc chimera (human, UniProt Q02763 23-748)
T1 construct: TIE-2 receptor tyrosine kinase, human, part fused to Fc in R&D Systems Cat. #313-TI-100; source: bought: R&D Systems
Experiment: ELISA; solid-phase binding assay; TIE-2/Fc (4.0 ug/ml) or Fibulin-5 (20 ug/ml) coated on 96-well plates; 1:2 serial dilutions of soluble Ang-1 in 2% non-fat milk in TBS, 1 hr, room temperature; detected with Ang-1 antibody
Conditions: both partners purified

T1 sequence (Q02763 23-748, change not shown): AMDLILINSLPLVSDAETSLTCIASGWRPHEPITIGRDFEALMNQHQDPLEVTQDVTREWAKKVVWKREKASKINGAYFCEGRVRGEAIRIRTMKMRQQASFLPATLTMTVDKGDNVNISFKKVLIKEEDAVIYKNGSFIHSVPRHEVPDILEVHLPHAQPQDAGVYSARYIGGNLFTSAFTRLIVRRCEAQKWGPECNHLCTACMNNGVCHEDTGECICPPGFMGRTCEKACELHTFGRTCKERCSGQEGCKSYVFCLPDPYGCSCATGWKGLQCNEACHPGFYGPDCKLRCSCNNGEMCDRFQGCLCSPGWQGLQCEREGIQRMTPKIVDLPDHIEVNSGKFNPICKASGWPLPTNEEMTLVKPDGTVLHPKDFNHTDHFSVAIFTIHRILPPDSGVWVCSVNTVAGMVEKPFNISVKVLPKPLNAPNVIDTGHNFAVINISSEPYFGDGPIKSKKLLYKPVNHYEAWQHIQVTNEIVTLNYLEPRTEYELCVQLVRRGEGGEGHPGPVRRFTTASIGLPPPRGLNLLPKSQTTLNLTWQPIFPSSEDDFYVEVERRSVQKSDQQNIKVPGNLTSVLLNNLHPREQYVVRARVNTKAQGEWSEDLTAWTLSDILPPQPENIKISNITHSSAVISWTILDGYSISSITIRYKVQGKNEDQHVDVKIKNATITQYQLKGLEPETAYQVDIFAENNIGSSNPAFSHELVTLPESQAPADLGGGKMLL

B1: recombinant human Ang-1 (angiopoietin-1) (ligand, UniProt Q15389 16-498, looked up)
chain: HIGCSNQRRSPENSGRRYNRIQHGQCAYTFILPEHDGNCRESTTDQYNTNALQRDAPHVEPDFSSQKLQHLEHVMENYTQWLQKLENYIVENMKSEMAQIQQNAVQNHTATMLEIGTSLLSQTAEQTRKLTDVETQVLNQTSRLEIQLLENSLSTYKLEKQLLQQTNEILKIHEKNSLLEHKILEMEGKHKEELDTLKEEKENLQGLVTRQTYIIQELEKQLNRATTNNSVLQKQQLELMDTVHNLVNLCTKEGVLLKGGKREEEKPFRDCADVYQAGFNKSGIYTIYINNMPEPKKVFCNMDVNGGGWTVIQHREDGSLDFQRGWKEYKMGFGNPSGEYWLGNEFIFAITSQRQYMLRIELMDWEGNRAYSQYDRFHIGNEKQNYRLYLKGHTGTAGKQSSLILHGADFSTKDADNDNCMCKCALMLTGGWWFDACGPSNLNGMFYTAGQNHGKLNGIKWHYFKGPSYSLRSTTMMIRPLDF
notes: angiopoietin-1, human, recombinant, R&D Systems Cat. #923-AN/CF; The introduction calls angiopoietins oligomeric glycoproteins; source: bought: R&D Systems
B1: binds.
